Experimental data: US20110250613A1, “Arrayed Multiple Ubiquitin Binding Domains as Linkage-specific Polyubiquitin Affinity Reagents” (THE JOHNS HOPKINS UNIVERSITY, priority 2009, published 2011)
Each block holds one substance with its values, some of them ahead of it.

Legend:
K63-linked diubiquitin [1] = molecular target: K63-linked diubiquitin (UniProt P0CG48); assay: ITC, single-site model
K63-linked diubiquitin [2] = molecular target: K63-linked diubiquitin (UniProt P0CG48); assay: ITC, single-site model; unit mM, evidently µM
K48-linked diubiquitin [3] = molecular target: K48-linked diubiquitin (UniProt P0CG48); assay: fluorescence anisotropy
[4] = molecular target: K48-linked tetraubiquitin (UniProt P0CG48); assay: fluorescence anisotropy
K63-linked diubiquitin [5] = molecular target: K63-linked diubiquitin (UniProt P0CG48); assay: fluorescence anisotropy
[6] = molecular target: K63-linked tetraubiquitin (UniProt P0CG48); assay: fluorescence anisotropy
[7] = molecular target: K48-linked tetraubiquitin (UniProt P0CG48); assay: fluorescence anisotropy, ratio of Kd
K48-linked diubiquitin [8] = molecular target: K48-linked diubiquitin (UniProt P0CG48); assay: fluorescence anisotropy; remark: listed apart in the source
K48-linked diubiquitin [9] = molecular target: K48-linked diubiquitin (UniProt P0CG48); assay: SPR, GST-UBA captured on anti-GST antibody
K63-linked diubiquitin [10] = molecular target: K63-linked diubiquitin (UniProt P0CG48); assay: SPR, GST-UBA captured on anti-GST antibody
[11] = molecular target: K48-linked tetraubiquitin (UniProt P0CG48); assay: fluorescence anisotropy; remark: listed apart in the source
[12] = molecular target: K63-linked tetraubiquitin (UniProt P0CG48); assay: fluorescence anisotropy; remark: listed apart in the source
K63-linked diubiquitin [13] = molecular target: K63-linked diubiquitin (UniProt P0CG48); assay: fluorescence anisotropy competition against the fluorescent Rap80 tUIM peptide at saturating K63-Ub2
K63-linked diubiquitin [14] = molecular target: K63-linked diubiquitin (UniProt P0CG48); assay: fluorescence anisotropy, alanine linker series
[15] = molecular target: K48-linked tetraubiquitin (UniProt P0CG48); assay: fluorescence anisotropy, ratio of Kd for Ub4 chains
K63-linked diubiquitin [16] = molecular target: K63-linked diubiquitin (UniProt P0CG48); assay: fluorescence anisotropy; remark: listed apart in the source
K63-linked diubiquitin [17] = molecular target: K63-linked diubiquitin (UniProt P0CG48); assay: fluorescence anisotropy, divalent-divalent complex fit, non-avid mode
K63-linked diubiquitin [18] = molecular target: K63-linked diubiquitin (UniProt P0CG48); assay: fluorescence anisotropy to high K63-Ub2 concentrations, divalent-divalent complex fit, avid mode
[19] = molecular target: K63-linked tetraubiquitin (UniProt P0CG48); assay: fluorescence anisotropy, solution state
[20] = molecular target: K48-linked tetraubiquitin (UniProt P0CG48); assay: fluorescence anisotropy competition with fluorescent Vps27 7aa linker peptide
[21] = molecular target: K63-linked tetraubiquitin (UniProt P0CG48); assay: as above
[22] = molecular target: K48-linked tetraubiquitin (UniProt P0CG48); assay: SPR, GST-UBA captured on anti-GST antibody
[23] = molecular target: K63-linked tetraubiquitin (UniProt P0CG48); assay: SPR, GST-UBA captured on anti-GST antibody
[24] = molecular target: K63-linked tetraubiquitin (UniProt P0CG48); assay: SPR Kd of GST-UBA1 against fluorescence anisotropy Kd of the free domain
[25] = molecular target: K63-linked tetraubiquitin (UniProt P0CG48); assay: SPR, captured on anti-GST antibody
K63-linked diubiquitin [26] = molecular target: K63-linked diubiquitin (UniProt P0CG48); assay: fluorescence anisotropy; Rap80 tUIM with 9-alanine linker
K48-linked diubiquitin [27] = molecular target: K48-linked diubiquitin (UniProt P0CG48); assay: fluorescence anisotropy, against K63-Ub2
[28] = molecular target: K48-linked tetraubiquitin (UniProt P0CG48); assay: fluorescence anisotropy, against K63-Ub4

n (sites) (K63-linked diubiquitin [1]): 0.97 sites | Kd (K63-linked diubiquitin [2]): 17600 µM
Substance: Rap80 tUIM peptide with a C-terminal 3-amino acid extension (DWS)

Kd (K48-linked diubiquitin [3]): 100 µM | Kd [4]: 3.3 µM | Kd (K63-linked diubiquitin [5]): 91 µM | Kd [6]: 15 µM | fold preference over K63-Ub4 [7]: 5 fold
Substance: Ataxin3 (wt) tandem UIM peptide

Kd (K48-linked diubiquitin [8]): 280 µM
Substance: Rap80 UIM1 peptide, fluorescein-labelled

Kd (K48-linked diubiquitin [3]): 129 µM | Kd (K63-linked diubiquitin [5]): 10 µM
Substance: Rap80_DLKAAIQ (peptide)

Kd (K48-linked diubiquitin [3]): 230 µM | Kd (K63-linked diubiquitin [5]): 17 µM
Substance: Rap80_ARLEEKV (peptide)

Kd (K48-linked diubiquitin [3]): 170 µM | Kd (K63-linked diubiquitin [5]): 16 µM
Substance: Rap80_S101E (peptide)

Kd (K48-linked diubiquitin [9]): 140 µM | Kd (K63-linked diubiquitin [10]): 89 µM
Substance: GST-DRM2 UBA1 (from UniProt Q9M548 106-154)

fold difference in Kd for K63- and K48-Ub4 [7]: < 2 fold | Kd [11]: 1.4 µM | Kd [12]: 2.2 µM
Substance: Dsk2 UBA, fluorescein-labelled (from UniProt P48510 327-371)

Kd [11]: 9 µM | Kd [12]: 30 µM
Substance: fluorescein-labeled hHR23A-UBA1 domain (from UniProt P54725 159-201)

Ki (K63-linked diubiquitin [13]): 24 µM
Substance: unlabeled Rap80 tUIM peptide

fold weaker than 7 A (K63-linked diubiquitin [14]): > 25 fold
Substance: Rap80 tUIM with 9-alanine linker (peptide)

Kd [11]: 37 µM | Kd [12]: 170 µM
Substance: Ubc1 UBA, His-tagged, Alexa-fluor 546 labelled

Kd (K48-linked diubiquitin [3]): 143 µM | Kd [4]: 3.4 µM | Kd (K63-linked diubiquitin [5]): 115 µM | Kd [6]: 20 µM | fold K48 preference [15]: 6 fold
Substance: Rap80 ataxin linker (peptide)

Kd (K63-linked diubiquitin [16]): 19 µM
Substance: Rap80 tUIM peptide with no 6xHis-tag and fluorescein on a C-terminal lysine side chain (expressed protein ligation)

Kd [4]: 14 µM | Kd (K63-linked diubiquitin [5]): 21.6 µM | Kd [6]: 3.6 µM | Kd (K63-linked diubiquitin [17]): 1000 µM | Kd (K63-linked diubiquitin [18]): 22 µM | Kd [11]: 15 µM | Kd [12]: 3.8 µM
Substance: Rap80 tandem UIMs (wt) peptide, His6-tagged, fluorescein-labelled

fold preference over K48-Ub4 [19]: 7 fold | Kd [11]: 23 µM | Kd [12]: 3.4 µM
Substance: Rap80 (1-233), fluorescein-labelled (from UniProt Q96RL1 1-233)

Kd (K48-linked diubiquitin [3]): 211 µM | Kd (K63-linked diubiquitin [5]): 67 µM | Kd [20]: 31 µM | Kd [21]: 29 µM
Substance: Vps27 (wt) tandem UIM peptide

Kd (K48-linked diubiquitin [9]): 36 µM | Kd [22]: 13 µM | Kd (K63-linked diubiquitin [10]): 26 µM | Kd [23]: 4.7 µM | fold tighter than the free domain [24]: > 6 fold
Substance: GST-hHR23A UBA1

fold difference in Kd for K63- and K48-Ub4 [7]: < 2 fold | Kd [11]: 50 µM | Kd [12]: 92 µM
Substance: Ddi1 UBA, fluorescein-labelled

Kd (K48-linked diubiquitin [9]): 110 µM | Kd [22]: 25 µM | Kd (K63-linked diubiquitin [10]): 48 µM | Kd [23]: 6 µM
Substance: GST-Ede1 UBA (from UniProt P34216 1336-1381)

Kd (K48-linked diubiquitin [8]): 200 µM
Substance: Rap80 UIM2 peptide, fluorescein-labelled

Kd (K48-linked diubiquitin [3]): 152 µM | Kd (K63-linked diubiquitin [5]): 11 µM
Substance: Rap80_S101A (peptide)

Kd (K63-linked diubiquitin [5]): 47 µM
Substance: Rap80_nolinker (peptide)

Kd (K48-linked diubiquitin [9]): 460 µM
Substance: GST-Ubc1 UBA (from UniProt P21734 167-215)

Kd [25]: 23 µM
Substance: GST-fmm (functionally monomeric mixture; GST-His/GST-Ede1 heterodimer) (from UniProt P34216 1336-1381)

Kd (K63-linked diubiquitin [26]): 92 µM
Substance: Rap80 tUIM with 9-alanine linker

Kd (K48-linked diubiquitin [3]): 160 µM | Kd [4]: 7.8 µM | Kd (K63-linked diubiquitin [5]): 60 µM | Kd [6]: 11 µM
Substance: ataxin-3 Rap80 linker (peptide)

fold preference for K48-polyUb (K48-linked diubiquitin [27]): < 2 fold | fold preference for K48-polyUb [28]: < 2 fold | Kd (K48-linked diubiquitin [8]): 86 µM | Kd [11]: 31 µM | Kd (K63-linked diubiquitin [16]): 120 µM | Kd [12]: 54 µM
Substance: Ede1_rhodamine (from UniProt P34216 1338-1381)
